Data reported in publication PMC5358725 (Genes & Development, 2017).

T1: Flag-3C-Mcm10-V5 (S. cerevisiae, UniProt P32354 1-571)
T1 sequence: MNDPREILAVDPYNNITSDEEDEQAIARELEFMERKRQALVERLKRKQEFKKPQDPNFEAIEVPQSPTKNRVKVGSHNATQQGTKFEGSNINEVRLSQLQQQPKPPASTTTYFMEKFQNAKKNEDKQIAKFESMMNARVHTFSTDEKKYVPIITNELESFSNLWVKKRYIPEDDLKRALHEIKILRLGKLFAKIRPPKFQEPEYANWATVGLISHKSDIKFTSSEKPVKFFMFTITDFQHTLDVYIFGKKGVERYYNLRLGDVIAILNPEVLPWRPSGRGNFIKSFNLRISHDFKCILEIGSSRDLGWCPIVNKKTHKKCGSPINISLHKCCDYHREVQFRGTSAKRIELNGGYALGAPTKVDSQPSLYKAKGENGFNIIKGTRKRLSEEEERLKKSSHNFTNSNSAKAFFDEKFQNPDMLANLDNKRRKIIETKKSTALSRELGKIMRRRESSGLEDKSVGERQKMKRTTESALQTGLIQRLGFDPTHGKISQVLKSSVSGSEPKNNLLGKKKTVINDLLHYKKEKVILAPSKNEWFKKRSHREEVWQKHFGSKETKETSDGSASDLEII

B1: Mcm2 1–483 (C-terminally 6xHis-tagged) (domain or fragment)
chain: MSDNRRRRREEDDSDSENELPPSSPQQHFRGGMNPVSSPIGSPDMINPEGDDNEVDDVPDIDEVEEQMNEVDLMDDNMYEDYAADHNRDRYDPDQVDDREQQELSLSERRRIDAQLNERDRLLRNVAYIDDEDEEQEGAAQLDEMGLPVQRRRRRRQYEDLENSDDDLLSDMDIDPLREELTLESLSNVKANSYSEWITQPNVSRTIARELKSFLLEYTDETGRSVYGARIRTLGEMNSESLEVNYRHLAESKAILALFLAKCPEEMLKIFDLVAMEATELHYPDYARIHSEIHVRISDFPTIYSLRELRESNLSSLVRVTGVVTRRTGVFPQLKYVKFNCLKCGSILGPFFQDSNEEIRISFCTNCKSKGPFRVNGEKTVYRNYQRVTLQEAPGTVPPGRLPRHREVILLADLVDVSKPGEEVEVTGIYKNNYDGNLNAKNGFPVFATIIEANSIKRREGNTANEGEEGLDVFSWTEEEERE
B2: MBP-Mcm2 196–299 (domain or fragment)
chain: EWITQPNVSRTIARELKSFLLEYTDETGRSVYGARIRTLGEMNSESLEVNYRHLAESKAILALFLAKCPEEMLKIFDLVAMEATELHYPDYARIHSEIHVRISD

Biological target: T1, Flag-3C-Mcm10-V5
Experiment: co-IP

Binder | binding result
B1 | binds
B2 | binds
